Data taken from patent publication US20250074988A1.

Target: recombinant human PD-L1 protein (Item No. 10084-H08H, Sino Biological) (human) (UniProt Q9NZQ7)
Assay: SPR, Biacore 8K, antibody captured on anti-human chip, huPD-L1 analyte, 1:1 model

recombinant human PD-L1 protein (Item No. 10084-H08H, Sino Biological) (human), sequence (Q9NZQ7 19-238 limits assumed): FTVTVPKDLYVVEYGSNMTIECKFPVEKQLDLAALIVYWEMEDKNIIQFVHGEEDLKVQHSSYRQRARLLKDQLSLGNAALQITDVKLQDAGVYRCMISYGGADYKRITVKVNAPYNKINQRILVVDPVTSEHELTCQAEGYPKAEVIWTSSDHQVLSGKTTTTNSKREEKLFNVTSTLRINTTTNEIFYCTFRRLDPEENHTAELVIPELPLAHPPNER

**Q.** Which results are given for MDX 1105 (antibody)?
**A.** Kd: 0.359 nM; koff: 0.00203 s⁻¹; kon: 5.65e+06 M⁻¹ s⁻¹
